Results: patent publication US20120308513A1 (DENDREON, published 2012)

Key:
Test in all cases: cell-based or functional assay
HLA-DRB1*0101 = HLA-DRB1*0101 (human)
HLA-DRB1*0102 = HLA-DRB1*0102 (human)
HLA-DRB1*0103 = HLA-DRB1*0103 (human)
HLA-DRB1*1503 = HLA-DRB1*1503 (human)
HLA-DRB1*160201 = HLA-DRB1*160201 (human)
HLA-DRB1*0301 = HLA-DRB1*0301 (human)
HLA-DRB1*0302 = HLA-DRB1*0302 (human)
HLA-DRB1*0401 = HLA-DRB1*0401 (human)
HLA-DRB1*0402 = HLA-DRB1*0402 (human)
HLA-DRB1*040301 = HLA-DRB1*040301 (human)
HLA-DRB1*040501 = HLA-DRB1*040501 (human)
HLA-DRB1*1101 = HLA-DRB1*1101 (human)
HLA-DRB1*1102 = HLA-DRB1*1102 (human)
HLA-DRB1*1103 = HLA-DRB1*1103 (human)
HLA-DRB1*1104 = HLA-DRB1*1104 (human)
HLA-DRB1*110401 = HLA-DRB1*110401 (human)
HLA-DRB1*1201 = HLA-DRB1*1201 (human)
HLA-DRB1*1301 = HLA-DRB1*1301 (human)
HLA-DRB1*1302 = HLA-DRB1*1302 (human)
HLA-DRB1*1401 = HLA-DRB1*1401 (human)
HLA-DRB1*1402 = HLA-DRB1*1402 (human)
HLA-DRB1*0701 = HLA-DRB1*0701 (human)
HLA-DRB1*080101 = HLA-DRB1*080101 (human)
HLA-DRB1*080201 = HLA-DRB1*080201 (human)
HLA-DRB1*0901 = HLA-DRB1*0901 (human)

Measured: IFNγ production by T cell clone HER500.23c21, HERp270-284 at 1 µg/mL presented by the homozygous EBV-LcL line (ELISA)

ALVTYNTDTFESMPN [HER500 peptide #63 (HERp270-284)]
> 4000 pg/mL: all assays above
